Measured values: patent publication US7098025B1, “Human peroxisome proliferator activated receptor gamma (pparγ) gene regulatory sequences and uses therefor” (Ligand Pharmaceuticals Incorporated, priority 1997, dated 2006)

T1: RXRalpha (Mus musculus, UniProt P28700 P28700:1-467)
T1 sequence: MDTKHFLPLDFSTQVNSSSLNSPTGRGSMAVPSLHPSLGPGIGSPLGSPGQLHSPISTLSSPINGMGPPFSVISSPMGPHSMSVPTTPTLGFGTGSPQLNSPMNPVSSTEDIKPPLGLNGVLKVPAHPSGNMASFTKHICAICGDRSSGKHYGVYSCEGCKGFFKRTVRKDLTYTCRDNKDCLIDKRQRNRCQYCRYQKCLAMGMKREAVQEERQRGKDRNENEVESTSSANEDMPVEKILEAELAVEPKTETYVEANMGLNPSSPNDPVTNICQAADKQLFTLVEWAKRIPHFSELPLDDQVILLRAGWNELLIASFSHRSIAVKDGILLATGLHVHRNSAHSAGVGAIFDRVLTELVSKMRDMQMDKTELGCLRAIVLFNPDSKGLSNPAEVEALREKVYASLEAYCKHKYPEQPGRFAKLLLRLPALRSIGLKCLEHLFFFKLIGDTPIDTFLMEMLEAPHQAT

B1: apoA-II J site PPRE (dsDNA)
DNA 1: GATCCTTCAACCTTTACCCTGGTAGA
DNA 2: TCTACCAGGGTAAAGGTTGAAGGATC
B2: MCSF: macrophage colony stimulating factor (protein, UniProt P09603 33-554, looked up)
Macrophage colony-stimulating …: EEVSEYCSHMIGSGHLQSLQRLIDSQMETSCQITFEFVDQEQLKDPVCYLKKAFLLVQDIMEDTMRFRDNTPNAIAIVQLQELSLRLKSCFTKDYEEHDKACVRTFYETPLQLLEKVKNVFNETKNLLDKDWNIFSKNCNNSFAECSSQDVVTKPDCNCLYPKAIPSSDPASVSPHQPLAPSMAPVAGLTWEDSEGTEGSSLLPGEQPLHTVDPGSAKQRPPRSTCQSFEPPETPVVKDSTIGGSPQPRPSVGAFNPGMEDILDSAMGTNWVPEEASGEASEIPVPQGTELSPSRPGGGSMQTEPARPSNFLSASSPLPASAKGQQPADVTGTALPRVGPVRPTGQDWNHTPQKTDHPSALLRDPPEPGSPRISSLRPQGLSNPSTLSAQPQLSRSHSSGSVLPLGELEGRRSTRDRRSPAEPEGGPASEGAARPLPRFNSVPLTDTGHERQSEGSFSPQLQESVFHLLVPSVILVLLAVGGLLFYRWRRRSHQEPQRADSPLEQPEGSPLTQDDRQVELPV

Experiments:
[1] = biological target: PPARgamma/RXRalpha heterodimer (hamster haPPARgamma) (hamster / Mus musculus, UniProt P57797;P28700 P57797:1-475,P28700:1-467); assay: EMSA; pH 7.9, 40 mM KCl, on ice; settings: tags: rabbit reticulocyte lysate (Promega); label: 32P (T4-PNK)
Method: (§1) To analyze whether PPARγ could bind to a PPRE, classically composed of direct repeats spaced by one intervening nucleotide (DR-1), EMSA was performed using in vitro transcribed/translated PPARγ2 protein. An oligonucleotide containing a high affinity PPRE, previously identified in the apoA-II promoter J site, was used in EMSA (29).
(§2) 7. Electrophoretic Mobility Shift Assays (EMSA) and Oligonucleotide Sequences haPPARγ (39), hPPARγ2, and mRXRα (40) proteins were synthesized in vitro in rabbit reticulocyte lysate (Promega). Molecular weights and quality of the in vitro translated proteins were verified by SDS-PAGE. PPAR (2 μl) and/or RXR (2 μl) were incubated for 15 min on ice in a total volume of 20 μl with 1-ng probe, 2.5 μg of poly(dI-dC) and 1 μg of herring sperm DNA in binding buffer (10 mM Tris-HCl pH 7.9, 40 mMKCl, 10% glycerol, 0.05% Nonidet P-40, and 1 mM dithiothreitol). For competition experiments, increasing amounts (from 10- to 200-fold molar excess) of cold oligonucleotide (AII-J-PPRE, 5'-[…]-3' (41) SEQ ID NO: 24; acyl-CoA oxidase (ACO)-PPRE, 5'-[…]-3' (42) SEQ ID NO: 25; or LPL-PPRE, 5'-[…]-3 (23) SEQ ID NO: 26; were included just before adding T4-PNK end-labeled AII-J-PPRE oligonucleotide. DNA-protein complexes were separated by electrophoresis on a 4% polyacrylamide gel in 0.25×TBE buffer at 4° C. (43).

RXRalpha = biological target: T1, RXRalpha; assay: EMSA; homodimer, no PPAR; settings: tags: rabbit reticulocyte lysate (Promega); label: 32P (T4-PNK)
Method: as §1, §2

[2] = biological target: PPARgamma2/RXRalpha heterodimer (Homo sapiens / Mus musculus, UniProt P37231;P28700 P37231:1-505,P28700:1-467); assay: EMSA; pH 7.9, 40 mM KCl, on ice; self-competition almost complete; settings: tags: rabbit reticulocyte lysate (Promega); label: 32P (T4-PNK)
Method: as §1, §2

PPARgamma2 = PPARgamma2 (Homo sapiens, UniProt P37231 P37231:1-505); assay: EMSA; homodimer, no RXR; settings: tags: rabbit reticulocyte lysate (Promega); label: 32P (T4-PNK)
Method: as §1, §2

PPARγ expression = PPARγ expression in primary macrophages and monocytic cell lines; format: cell-based
Source text: PPARγ is expressed in a subset of macrophages and negatively regulates the expression of several pro-inflammatory genes in response to its ligands. We recently discovered the presence of PPARγ in human macrophages foam cells of human atherosclerotic lesions. In these cells, PPARγ is present in a pattern correlated with that of oxidation-specific epitopes. Oxidized low-density lipoprotein (LDL) and macrophage colony stimulating factor (MCSF) are known to be present in atherosclerotic lesions. […] Furthermore, phorbol esters induced PPARγ expression.

Sequence of PPARgamma2/RXRalpha heterodimer (P37231 whole entry, one chain of several): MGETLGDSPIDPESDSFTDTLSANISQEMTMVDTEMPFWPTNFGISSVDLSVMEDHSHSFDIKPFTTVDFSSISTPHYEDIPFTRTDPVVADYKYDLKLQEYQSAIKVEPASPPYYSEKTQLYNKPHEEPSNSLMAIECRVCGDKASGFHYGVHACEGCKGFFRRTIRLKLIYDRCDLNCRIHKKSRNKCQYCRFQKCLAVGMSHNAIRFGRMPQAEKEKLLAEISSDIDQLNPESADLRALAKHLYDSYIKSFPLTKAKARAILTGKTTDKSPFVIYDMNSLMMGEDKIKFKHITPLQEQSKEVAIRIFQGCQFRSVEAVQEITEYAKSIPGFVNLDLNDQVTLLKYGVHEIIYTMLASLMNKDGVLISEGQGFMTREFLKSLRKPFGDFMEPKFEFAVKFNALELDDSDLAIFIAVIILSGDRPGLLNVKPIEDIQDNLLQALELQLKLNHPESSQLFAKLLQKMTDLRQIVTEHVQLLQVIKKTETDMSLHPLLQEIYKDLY
Sequence of PPARgamma2 (P37231 whole entry, one chain of several): as above

Molecule	binding result [1]	binding result (RXRalpha)	binding result [2]	binding result (PPARgamma2)	PPARγ expression (PPARγ expression)
B1	binds	no binding	binds	no binding	
B2					stimulate PPARγ expression
